# T1: p300 TAZ2 domain (1723-1836), Q09472
# T1 chain: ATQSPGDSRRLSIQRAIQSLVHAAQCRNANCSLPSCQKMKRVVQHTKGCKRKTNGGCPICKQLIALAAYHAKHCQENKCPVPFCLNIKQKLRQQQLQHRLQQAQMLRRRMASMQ
# T2: NUT4 (347-480), Q86Y26
# T2 chain: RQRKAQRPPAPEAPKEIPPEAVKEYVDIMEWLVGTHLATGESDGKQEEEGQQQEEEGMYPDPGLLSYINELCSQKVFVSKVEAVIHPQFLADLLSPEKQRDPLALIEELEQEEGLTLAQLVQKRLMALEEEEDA
# B1: GST-NUT8 wild type D407K; L410A; Y413K; C418G; F423A; V424G; E428S; V430G; P433G; F435S; L439G; L440S; D447K; A450G; L451S; E454K; L455S; E458K; E459S; L461G; … (protein)
# chain: GQQQEEEGMYPKPGALSKINELGSQKVAGSKVSAGIHGQSLADGSSPEKQRKPLGSIEKSEQKSGGSLAQLVQKRLMALEEEEDAE
# B2: GST-NUT8 wild type D447A; L449A; A450G; L451A; E453A; E454A; L455A; E456A; E458A; E459A; L461A; T462A (protein)
# chain: GQQQEEEGMYPDPGLLSYINELCSQKVFVSKVEAVIHPQFLADLLSPEKQRAPAGAIAAAAQAAGAALAQLVQKRLMALEEEEDAE
# B3: GST-NUT8 wild type L436A; L439A; L440A; D447A; L449A; A450G; L451A; E453A; E454A; L455A; E456A; E458A; E459A; L461A; T462A (protein)
# chain: GQQQEEEGMYPDPGLLSYINELCSQKVFVSKVEAVIHPQFAADAASPEKQRAPAGAIAAAAQAAGAALAQLVQKRLMALEEEEDAE
# B4: GST-NUT8 wild type L410A; L411A; Y413A; L417A; C418A; F423A; V424A; V427A; V430A; I431A; F435A; L436A; L439A; L440A; D447A; L449A; A450G; L451A; E453A; E454A; … (protein)
# chain: GQQQEEEGMYPDPGAASAINEAASQKVAASKAEAAAHPQAAADAASPEKQRAPAGAIAAAAQAAGAALAQLVQKRLMALEEEEDAE
# B5: p300 TAZ2 domain (construct limits not told for the experiment) (domain or fragment)
# chain: ATQSPGDSRRLSIQRAIQSLVHAAQCRNANCSLPSCQKMKRVVQHTKGCKRKTNGGCPICKQLIALAAYHAKHCQENKCPVPFCLNIKQKLRQQQLQHRLQQAQMLRRRMASMQ
# modifications: not checked
# B6: p300 CH3 domain (1660-1815) (domain or fragment, UniProt Q09472 1660-1815, looked up)
# chain: TQSQDRFVYTCNECKHHVETRWHCTVCEDYDLCITCYNTKNHDHKMEKLGLGLDDESNNQQAAATQSPGDSRRLSIQRCIQSLVHACQCRNANCSLPSCQKMKRVVQHTKGCKRKTNGGCPICKQLIALCCYHAKHCQENKCPVPFCLNIKQKLRQ
# notes: p300 CH3 domain, residues 1660-1815, in pGEX-5x1 with a TEV-cleavable GST tag
# How the values were obtained:
# [1] = biological target: GST-NUT8 wild type (396-470) (UniProt Q86Y26); assay: BLI; GST-NUT8 wild type or mutants loaded on Anti-GST biosensors, TAZ2 (1723-1836) as analyte; 25 °C; 1x PBS, 0.1% BSA, 0.02% Tween 20; steady-state analysis
# [2] = biological target: T1, p300 TAZ2 domain (1723-1836), Q09472; assay: BLI; conditions: chain shown with the change, read off a plot
# NUT4 (347-480), Q86Y26 = biological target: T2, NUT4 (347-480), Q86Y26; assay: SEC-MALS; Superdex 75 Increase 10/300 GL, 20 mM HEPES pH 7.0, 300 mM NaCl, 5 µM ZnSO4, 0.5 mM TCEP; 50 µl at 2 mg/ml injected
# [3] = biological target: T3, NUT-F1c (347-588), tag cleaved (UniProt Q86Y26 347-588); assay: SEC; complex run on HiLoad Superdex 200, Superdex 200 Increase 10/300 GL or Superdex 75 Increase 10/300 GL; SDS-PAGE of the peak fractions; conditions: both partners purified
# T3 construct: not shown: His6-GST (pETM-30) or His6 (pETM11), N-terminal, cleaved
molecule,measurement,setting,value
p300 TAZ2 domain (1723-1836) (from UniProt Q09472 1723-1836) (domain or fragment),Kd,[1],960 nM
B1,response,"[2]; TAZ2 10 µM, parent: est. 0.22",0.03 nm
B2,response,"[2]; TAZ2 2.5 µM, parent: est. 0.18",0.07 nm
same,response,"[2]; TAZ2 5 µM, parent: est. 0.21",0.11 nm
same,response,"[2]; TAZ2 10 µM, parent: est. 0.22",0.13 nm
B3,response,"[2]; TAZ2 2.5 µM, parent: est. 0.18",0.075 nm
same,response,"[2]; TAZ2 5 µM, parent: est. 0.21",0.14 nm
same,response,"[2]; TAZ2 10 µM, parent: est. 0.22",0.2 nm
B4,response,"[2]; TAZ2 10 µM, parent: est. 0.22",0.085 nm
B5,stoichiometry N,"NUT4 (347-480), Q86Y26",1
B6,binding result,[3],binds

# Reference: article PMC9755262 (Nature Communications, 2022)
